Measurements: article PMC7261170 (Nucleic Acids Research, 2020)

Biological target: T1, CBP-CWC22-S (residues 100-665) (human, UniProt Q9HCG8 100-665)
T1 sequence (looked up): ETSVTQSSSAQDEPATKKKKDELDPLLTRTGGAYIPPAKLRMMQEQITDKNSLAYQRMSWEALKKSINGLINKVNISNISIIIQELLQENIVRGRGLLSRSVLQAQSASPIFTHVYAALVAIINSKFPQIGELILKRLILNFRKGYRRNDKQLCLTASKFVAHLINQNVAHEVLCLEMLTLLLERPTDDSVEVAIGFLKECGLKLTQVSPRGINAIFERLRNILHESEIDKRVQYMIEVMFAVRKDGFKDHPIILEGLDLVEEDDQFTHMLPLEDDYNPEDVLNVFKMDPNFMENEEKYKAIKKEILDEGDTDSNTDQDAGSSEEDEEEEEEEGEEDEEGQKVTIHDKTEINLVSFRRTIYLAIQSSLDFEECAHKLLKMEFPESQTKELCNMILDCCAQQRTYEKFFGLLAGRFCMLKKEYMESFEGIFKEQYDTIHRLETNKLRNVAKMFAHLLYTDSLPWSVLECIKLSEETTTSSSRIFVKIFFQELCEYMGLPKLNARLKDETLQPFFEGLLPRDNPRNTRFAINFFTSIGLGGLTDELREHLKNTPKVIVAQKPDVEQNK
Assay: pull-down

Binder	binding result
CWC27-C (354-472) (domain or fragment, human, UniProt Q6UX04 354-472, looked up) DGAVAEYRREKQKYEALRKQQSKKGTSREDQTLALLNQFKSKLTQAIAETPENDIPETEVEDDEGWMSHVLQFEDKSRKVKDASMQDSDTFEIYDPRNPVNKRRREESKKLMREKKERR	binds
PTS-CWC27 (1-472) (natural protein, human, UniProt Q6UX04 1-472, looked up) MSNIYIQEPPTNGKVLLKTTAGDIDIELWSKEAPKACRNFIQLCLEAYYDNTIFHRVVPGFIVQGGDPTGTGSGGESIYGAPFKDEFHSRLRFNRRGLVAMANAGSHDNGSQFFFTLGRADELNNKHTIFGKVTGDTVYNMLRLSEVDIDDDERPHNPHKIKSCEVLFNPFDDIIPREIKRLKKEKPEEEVKKLKPKGTKNFSLLSFGEEAEEEEEEVNRVSQSMKGKSKSSHDLLKDDPHLSSVPVVESEKGDAPDLVDDGEDESAEHDEYIDGDEKNLMRERIAKKLKKDTSANVKSAGEGEVEKKSVSRSEELRKEARQLKRELLAAKQKKVENAAKQAEKRSEEEEAPPDGAVAEYRREKQKYEALRKQQSKKGTSREDQTLALLNQFKSKLTQAIAETPENDIPETEVEDDEGWMSHVLQFEDKSRKVKDASMQDSDTFEIYDPRNPVNKRRREESKKLMREKKERR	binds
